Assay results from US20110126299A1 (published 2011).

Target: T1, λ2^315 Ig L-chain (idiotype, Id) peptide on I-E^d (mouse)
T1 peptide: ALWFRNHFVFG
Assay: activation reporter or marker

- binding result: recognises
B1: 4B2A1 TCR (TCR, V domains shown)
Valpha: QQKVQQSPESLIVPEGAMTSLNCTFSDSASQYFAWYRQQSGKAPKALMSIFSNGEKEEGRFTIHLNKASLHFSLHIRDSQPSDSALYLCAVRGPNTGNYKYVFGAGTRLKVIA
Vbeta: EAAVTQSPRNKVAVTGGKVTLSCNQTNNHNNMYWYRQDTGHGLRLIHYSYGAGSTEKGDIPDGYKASRPSQENFSLILELATPSQTSVYFCASGDAGQGHSDYTFGSGTRLLVI
